In the supplement of paper PMC6757056:
± gives the standard deviation of the averaged measurements.

B1: library; a variant is named by its letters at N, in order (parent)
chain: GCUGUCACCGGUGUAUUACCCUAGUGGUCGACCGGUCUGAUGAGUCUNNNNNNAGACGAAACAGC

How the values were obtained:
[1] = variants of: B1; assay: FACS-Seq fitted mean relative fluorescence mCherry/BFP without ligand (log10 relative fluorescence); ligand: hypoxanthine (xanthine aptamer); higher = higher reporter protein expression; details: HEK293T, ligand present: no
How it was run: (§1)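 Fluorescence is reported as a normalized fitted mean of sorted-bin read counts. Lentivirally transduced HEK293T libraries (mCherry ribozyme-switch reporter, EF1α-BFP marker) were enriched, treated with or without ligand for 48 h, and sorted into 6 mCherry/BFP bins for MiSeq sequencing of PCR-amplified genomic DNA. The normal fit was on log10(mCherry/BFP), scaled to five spiked-in control ribozymes.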

[2] = variants of: B1; assay: normalized RNA/DNA level with ligand (relative to sTRSVctl = 100) (log10 (% of sTRSVctl)); ligand: hypoxanthine (xanthine aptamer); higher = less ribozyme self-cleavage, higher mRNA level; details: ligand concentration (+) RNA-Seq: 5 mM, HEK293T, reporter: mCherry (pCS4076), ligand present: yes
How it was run: (§2)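 Total RNA, extracted with EDTA 72 h after HEK293T cells were transfected with 4 µg per 6-well well of reporter-linked ribozyme switch library plasmids, was reverse-transcribed, amplified, barcoded and sequenced. Ligand, if used, was added 1 h before transfection. RNA level was derived from RNA reads divided by DNA reads and normalized to a spiked-in non-cleaving sequence or to the top sequences. This was multiplied by 100 and log10-transformed, with the top set of 25 sequences and a ≥100 DNA read minimum.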

[3] = variants of: B1; assay: normalized RNA/DNA level without ligand (relative to sTRSVctl = 100) (log10 (% of sTRSVctl)); ligand: hypoxanthine (xanthine aptamer); higher = less ribozyme self-cleavage, higher mRNA level; details: HEK293T, reporter: mCherry (pCS4076), ligand present: no
How it was run: as §2

[4] = variants of: B1; assay: FACS-Seq fitted mean relative fluorescence mCherry/BFP with ligand (log10 relative fluorescence); ligand: hypoxanthine (xanthine aptamer); ligand concentration (+) FACS-Seq: 5 mM; higher = higher reporter protein expression; details: HEK293T, ligand present: yes
How it was run: as §1

Variant	FACS-Seq fitted mean (log10) [1]	normalized RNA/DNA level with ligand (log10) [2]	normalized RNA/DNA level without ligand (log10) [3]	FACS-Seq fitted mean (log10) [4]
GUGGUA	0.478 ± 0.079	1.95 ± 0.026	1.759 ± 0.016	0.585 ± 0.082
GUGGUG	0.0578 ± 0.012	1.83 ± 0.047	1.33 ± 0.043	0.546 ± 0.02
GUUCGU	0.476 ± 0.02	1.98 ± 0.087	1.887 ± 0.01	0.538 ± 0.014
GUUAGA	0.572 ± 0.13	1.905 ± 0.0029	1.694 ± 0.0036	0.619 ± 0.075
GUUAGG	0.451 ± 0.026	1.8 ± 0.045	1.38 ± 0.033	0.648 ± 0.03
UUGUGG	0.447 ± 0.013	2.01 ± 0.025	1.89 ± 0.0069	0.511 ± 0.067
CUUCAC	0.798 ± 0.0035	1.98 ± 0.022	1.89 ± 0.038	0.7261 ± 0.0054
CUUAAC	0.554 ± 0.03	1.89 ± 0.059	1.82 ± 0.036	0.637 ± 0.05
CUUGAA	0.0914 ± 0.0068	1.95 ± 0.041	1.706 ± 0.015	0.182 ± 0.0048
UUUAUU	0.761 ± 0.032	1.9334 ± 0.00045	1.86 ± 0.047	0.799 ± 0.067
UUUAUA	-0.64 ± 0.014	1.93 ± 0.024	1.849 ± 0.0039	-0.329 ± 0.11
AUUCGG	0.175 ± 0.028	1.87 ± 0.021	1.46 ± 0.024	0.625 ± 0.014
UUGUAU	-0.614 ± 0.05	1.94 ± 0.077	1.93 ± 0.026	-0.338 ± 0.072
CUUCGA	-0.0248 ± 0.11	2.01 ± 0.04	1.876 ± 0.012	0.346 ± 0.059
GUUCAA	0.0385 ± 0.025	1.89 ± 0.075	1.79 ± 0.042	0.294 ± 0.0042
CUGUUA	0.263 ± 0.085	1.95 ± 0.057	1.66 ± 0.027	0.493 ± 0.053
AUGGUC	0.812 ± 0.048	2 ± 0.036	1.92 ± 0.033	0.6851 ± 0.0041
AUGGUA	0.303 ± 0.033	1.86 ± 0.045	1.73 ± 0.048	0.304 ± 0.016
AUGGUG	-0.243 ± 0.17	1.79 ± 0.062	1.331 ± 0.0014	0.0458 ± 0.031
AUUCAU	0.124 ± 0.035	1.93 ± 0.049	1.8 ± 0.064	0.262 ± 0.046
CUUAUA	0.669 ± 0.043	1.92 ± 0.037	1.792 ± 0.014	0.696 ± 0.063
GUGUUG	0.222 ± 0.012	1.83 ± 0.048	1.34 ± 0.11	0.559 ± 0.033
GUGUCG	0.585 ± 0.017	1.86 ± 0.034	1.604 ± 0.0026	0.628 ± 0.037
UUUGAA	0.522 ± 0.076	1.9 ± 0.041	1.75 ± 0.036	0.351 ± 0.04

Variant	FACS-Seq fitted mean (log10) [1]	normalized RNA/DNA level with ligand (log10) [2]	normalized RNA/DNA level without ligand (log10) [3]	FACS-Seq fitted mean (log10) [4]
AUUACG	0.368 ± 0.015	1.84 ± 0.066	1.397 ± 0.00039	0.626 ± 0.068
AUUACA	0.157 ± 0.076	1.91 ± 0.033	1.776 ± 0.0047	0.407 ± 0.0063
CUUACC	0.555 ± 0.022	1.91 ± 0.046	1.907 ± 0.0033	0.393 ± 0.022
AUGUUG	0.146 ± 0.039	1.85 ± 0.024	1.44 ± 0.075	0.386 ± 0.071
AUGUUU	0.564 ± 0.028	1.95 ± 0.055	1.85 ± 0.03	0.43 ± 0.049
AUGUCU	0.305 ± 0.037	1.957 ± 0.019	1.85 ± 0.046	0.0818 ± 0.041
AUGUGU	-0.337 ± 0.023	1.86 ± 0.02	1.53 ± 0.059	0.155 ± 0.022
AUGUGA	0.242 ± 0.018	1.849 ± 0.0086	1.56 ± 0.1	0.68 ± 0.028
AUGUGG	-0.193 ± 0.082	1.756 ± 0.0083	1.27 ± 0.11	-0.0634 ± 0.1
CUGUGG	0.575 ± 0.018	1.91 ± 0.027	1.45 ± 0.089	0.842 ± 0.073
UUUAAC	0.697 ± 0.045	2 ± 0.04	1.86 ± 0.021	0.716 ± 0.07
UUUAAU	0.485 ± 0.013	1.918 ± 0.01	1.856 ± 0.0057	0.421 ± 0.053
UUUAGC	0.28 ± 0.015	1.95 ± 0.061	1.88 ± 0.037	0.555 ± 0.04
UUUAGG	0.0978 ± 0.0074	1.9004 ± 0.0014	1.83 ± 0.0068	0.462 ± 0.026
UUUAGU	0.632 ± 0.16	1.93 ± 0.043	1.83 ± 0.064	0.638 ± 0.11
AUGUAA	0.323 ± 0.0041	1.93 ± 0.036	1.68 ± 0.0086	0.279 ± 0.019
AUGUAC	0.103 ± 0.13	1.893 ± 0.017	1.7 ± 0.026	0.149 ± 0.054
AUGUAU	-0.142 ± 0.082	1.925 ± 0.0046	1.73 ± 0.021	0.156 ± 0.0021
AUGUAG	-0.0834 ± 0.023	1.768 ± 0.0076	1.27 ± 0.1	0.176 ± 0.087
AUUGAC	0.697 ± 0.08	1.914 ± 0.01	1.816 ± 0.0025	0.672 ± 0.11
GUGGGU	0.152 ± 0.061	1.94 ± 0.021	1.79 ± 0.018	0.626 ± 0.031
AUUAUA	0.24 ± 0.022	1.928 ± 0.019	1.81 ± 0.028	0.402 ± 0.063
AUUAUU	0.5583 ± 0.0011	1.91 ± 0.0029	1.881 ± 0.011	0.668 ± 0.014
GUUAAC	0.164 ± 0.008	1.95 ± 0.021	1.8064 ± 0.0016	-0.269 ± 0.1

Variant	FACS-Seq fitted mean (log10) [1]	normalized RNA/DNA level with ligand (log10) [2]	normalized RNA/DNA level without ligand (log10) [3]	FACS-Seq fitted mean (log10) [4]
GUUAAU	0.528 ± 0.024	1.9 ± 0.02	1.8 ± 0.067	0.566 ± 0.0099
CUUCCC	-0.199 ± 0.041	1.9 ± 0.021	1.9406 ± 0.0018	0.0439 ± 0.038
GUGUAA	0.291 ± 0.061	1.85 ± 0.024	1.67 ± 0.049	0.495 ± 0.043
GUGUAU	0.314 ± 0.018	1.91 ± 0.056	1.737 ± 0.017	0.33 ± 0.021
GUGUAG	0.19 ± 0.04	1.76 ± 0.022	1.17 ± 0.065	0.6252 ± 0.0039
GUUACC	-0.307 ± 0.2	1.91 ± 0.057	1.882 ± 0.018	-0.559 ± 0.021
GUUACU	0.523 ± 0.11	1.946 ± 0.0064	1.89 ± 0.06	0.466 ± 0.036
GUUACG	0.564 ± 0.075	1.88 ± 0.03	1.59 ± 0.027	0.566 ± 0.043
AUUCUC	0.8249 ± 0.0011	2.01 ± 0.033	1.96 ± 0.044	0.724 ± 0.063
AUUCCG	0.126 ± 0.023	1.93 ± 0.021	1.589 ± 0.013	0.296 ± 0.031
AUUCCU	0.507 ± 0.036	1.922 ± 0.0034	1.89 ± 0.064	0.567 ± 0.011
GUUAUG	0.223 ± 0.011	1.87 ± 0.039	1.46 ± 0.015	0.509 ± 0.01
AUUAGC	0.269 ± 0.031	1.92 ± 0.037	1.77 ± 0.029	0.487 ± 0.023
AUUAGG	0.0666 ± 0.043	1.81 ± 0.045	1.31 ± 0.021	0.477 ± 0.051
AUUAGA	0.629 ± 0.042	1.895 ± 0.013	1.71 ± 0.028	0.69 ± 0.04
GUGUGU	0.3521 ± 0.0033	1.894 ± 0.0042	1.64 ± 0.023	0.466 ± 0.13
GUGUGA	0.33 ± 0.037	1.905 ± 0.0085	1.58 ± 0.026	0.67 ± 0.024
GUGUGC	0.169 ± 0.0029	1.801 ± 0.013	1.36 ± 0.089	0.597 ± 0.033
GUGUGG	0.0226 ± 0.011	1.807 ± 0.0054	1.27 ± 0.025	0.5793 ± 0.0024
CUGUCA	0.49 ± 0.048	2 ± 0.058	1.86 ± 0.037	0.439 ± 0.09
CUGUAU	0.503 ± 0.018	1.899 ± 0.013	1.82 ± 0.043	0.384 ± 0.08
AUUAAG	0.351 ± 0.019	1.86 ± 0.028	1.48 ± 0.056	0.65 ± 0.069
AUUAAU	0.51 ± 0.075	1.89 ± 0.023	1.774 ± 0.0011	0.566 ± 0.024
AUUAAA	0.84 ± 0.0057	1.89 ± 0.045	1.78 ± 0.021	0.732 ± 0.092
